For 7 substances, stoichiometry N, Kd and fold higher IC50 (reference not named: HAdV-C5 or ChAdOx1 fiber knob) results are on record in PMC8635433.

pKd: −log10 of the molar value. Some results are limits rather than exact numbers.

Assay [1] deals with ChAdOx1 penton protein (chimpanzee adenovirus Y25). Briefly: cryo-EM structure.
The target of assay [2] is ChAdOx1 fiber knob protein (chimpanzee adenovirus Y25). Briefly: crystal structure; ChAdOx1 fiber knob, P1, 1.59 Å, four trimers in the asymmetric unit.
Assay [3] deals with coxsackie and adenovirus receptor (CAR), immobilised for SPR (UniProt P78310). Kind of assay: SPR; BIAcore T200; about 2000 RU of CAR, DSG2 and CD46 amine-coupled to a CM5 chip; fiber knob proteins flowed over, 1:2 serial dilutions; 25°C, PBS with 0.001% P20, 30 μl/min; 1:1 interaction model. (In general: Surface plasmon resonance follows binding to a sensor surface in real time, without labels.)

Assay [4] deals with AZD1222 vaccine preparation of ChAdOx1 (ChAdOx1 nCoV-19) (chimpanzee adenovirus Y25). Kind of assay: SPR.
For assay [5], the target named is human adenovirus type 26 (HAdV-D26) viral vector (virus particle) (human adenovirus type 26). Briefly: SPR.
In assay [6] the target is human adenovirus type 5 (HAdV-C5) viral vector (virus particle) (human adenovirus type 5) (UniProt P04133). Briefly: SPR.
The target of another assay is CAR on CHO-CAR cells (UniProt P78310). Briefly: flow cytometry on cells; antibody binding inhibition: serial dilutions of fiber knob (0.00001 to 100 μg per 10^5 cells) on CHO-CAR or CHO-BC1 cells, 30 min on ice, then anti-CAR RmcB or anti-CD46 MEM-258 and Alexa Fluor 488 secondary antibody; IC50 by nonlinear regression.
The target in assay [7] is ChAdOx1 hexon (chimpanzee adenovirus Y25). Kind of assay: cryo-EM structure.
In assay [8] the target is ChAdOx1 pIX (chimpanzee adenovirus Y25). Kind of assay: cryo-EM structure.

Sequence of CAR on CHO-CAR cells (P78310 20-365): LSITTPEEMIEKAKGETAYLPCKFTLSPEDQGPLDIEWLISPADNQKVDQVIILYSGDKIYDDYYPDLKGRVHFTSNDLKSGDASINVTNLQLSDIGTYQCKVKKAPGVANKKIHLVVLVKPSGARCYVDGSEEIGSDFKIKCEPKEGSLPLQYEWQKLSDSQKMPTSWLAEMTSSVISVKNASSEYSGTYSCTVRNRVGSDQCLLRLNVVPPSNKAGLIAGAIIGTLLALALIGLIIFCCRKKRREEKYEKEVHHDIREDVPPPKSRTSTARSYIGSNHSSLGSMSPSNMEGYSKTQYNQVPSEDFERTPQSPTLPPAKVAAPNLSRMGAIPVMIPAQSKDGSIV

By stoichiometry N is commonly meant the number of molecules, sites or subunits per partner or assembly. The substance “ChAdOx1 penton protein (natural protein)” yielded a stoichiometry N in assay [1] of 5.

For “ChAdOx1 fiber knob protein (domain or fragment)”, the stoichiometry N in assay [2] was determined as 3.

Broadly, the pKd is the negative decadic logarithm of the Kd, by convention in mol/L. A high value points to a small Kd. The substance “ChAdOx1 fiber knob protein (domain or fragment; other documents disagree on this pair)” showed a pKd in [3] of 8.15.

With “platelet factor 4 (PF4) (natural protein)”, the pKd was 6.29 in assay [4], 6.52 in [5] and 6.10 in assay [6].

Regarding “HAdV-B35 fiber knob protein (domain or fragment)”, the fold higher IC50 (reference not named: HAdV-C5 or ChAdOx1 fiber knob) in the assay with CAR on CHO-CAR cells was over 1000 fold.

The substance ChAdOx1 hexon (natural protein) came in with a stoichiometry N in [7] of 3.

In assay [8], ChAdOx1 pIX (natural protein) came in with a stoichiometry N of 4.
